Experimental data from patent publication US20130315910A1 (Xencor, published 2013).

Legend:
Assay in all cases: SPR
mFcγRIIb = target: T1, mFcγRIIb (Mus musculus, UniProt P08101)
T1 construct: extracellular region, C-terminal His- and GST-tag; also called mouse FcγRII
T1 sequence (receptor extracellular region, looked up): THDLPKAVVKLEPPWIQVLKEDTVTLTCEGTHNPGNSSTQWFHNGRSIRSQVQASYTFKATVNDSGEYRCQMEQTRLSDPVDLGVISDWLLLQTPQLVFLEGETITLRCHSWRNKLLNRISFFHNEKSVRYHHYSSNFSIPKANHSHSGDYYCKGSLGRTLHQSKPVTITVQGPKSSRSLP

mFcγRIV = target: T2, mFcγRIV
T2 construct: also called mouse FcγRIV; not shown: C-terminal His and GST tags (named only on our card)
T2 chain: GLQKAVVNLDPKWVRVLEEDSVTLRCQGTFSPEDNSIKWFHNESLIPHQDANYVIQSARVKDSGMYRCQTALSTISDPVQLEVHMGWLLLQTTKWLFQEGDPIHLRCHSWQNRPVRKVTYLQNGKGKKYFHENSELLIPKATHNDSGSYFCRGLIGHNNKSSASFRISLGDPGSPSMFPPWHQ

cynoFcγRIIb = target: T3, cynoFcγRIIb (Macaca fascicularis, UniProt A0A140HDP4)
T3 construct: extracellular region, C-terminal His- and GST-tag; also called cynomolgus monkey FcγRIIb
T3 sequence (receptor extracellular region): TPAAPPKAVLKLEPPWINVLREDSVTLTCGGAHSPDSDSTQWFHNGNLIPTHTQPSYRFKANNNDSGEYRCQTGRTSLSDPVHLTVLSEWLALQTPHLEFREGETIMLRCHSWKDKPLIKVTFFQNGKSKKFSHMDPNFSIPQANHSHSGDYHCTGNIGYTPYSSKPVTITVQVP

cynoFcγRIIIa = target: T4, cynoFcγRIIIa (Macaca fascicularis, UniProt Q8SPW2)
T4 construct: extracellular region, C-terminal His- and GST-tag; also called cynomolgus monkey FcγRIIIa
T4 sequence (Q8SPW2 17-208): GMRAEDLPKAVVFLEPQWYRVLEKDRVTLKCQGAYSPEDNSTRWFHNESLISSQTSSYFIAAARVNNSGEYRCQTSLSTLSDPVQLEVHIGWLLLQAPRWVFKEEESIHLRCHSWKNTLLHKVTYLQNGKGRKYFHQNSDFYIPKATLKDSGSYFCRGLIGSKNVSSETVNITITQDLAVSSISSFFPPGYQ
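Also: fold improvement over WT IgG1 so higher means slower dissociation than WT.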

Fold vs WT IgG1 (off-rate) (mFcγRIIb): 1.44 fold | Fold vs WT IgG1 (off-rate) (mFcγRIV): 0.77 fold | Fold vs WT IgG1 (off-rate) (cynoFcγRIIb): 1.09 fold | Fold vs WT IgG1 (off-rate) (cynoFcγRIIIa): 0.515 fold
B1: anti-CD19 antibody HuAM4G7 IgG1 S267E (antibody)
heavy: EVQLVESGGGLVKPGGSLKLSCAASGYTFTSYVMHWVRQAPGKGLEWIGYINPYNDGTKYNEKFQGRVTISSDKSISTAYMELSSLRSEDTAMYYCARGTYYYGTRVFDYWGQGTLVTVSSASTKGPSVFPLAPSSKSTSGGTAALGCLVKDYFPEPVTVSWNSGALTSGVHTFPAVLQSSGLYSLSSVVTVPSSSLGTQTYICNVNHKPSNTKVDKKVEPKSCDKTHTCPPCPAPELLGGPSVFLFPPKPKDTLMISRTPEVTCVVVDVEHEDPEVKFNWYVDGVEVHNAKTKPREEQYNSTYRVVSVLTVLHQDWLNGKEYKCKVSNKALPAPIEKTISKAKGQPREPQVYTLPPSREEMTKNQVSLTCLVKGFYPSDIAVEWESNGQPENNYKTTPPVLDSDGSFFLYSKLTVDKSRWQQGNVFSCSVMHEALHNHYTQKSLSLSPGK
light: DIVMTQSPATLSLSPGERATLSCRSSKSLQNVNGNTYLYWFQQKPGQSPQLLIYRMSNLNSGVPDRFSGSGSGTEFTLTISSLEPEDFAVYYCMQHLEYPITFGAGTKLEIKRTVAAPSVFIFPPSDEQLKSGTASVVCLLNNFYPREAKVQWKVDNALQSGNSQESVTEQDSKDSTYSLSSTLTLSKADYEKHKVYACEVTHQGLSSPVTKSFNRGEC
notes: Positions in EU numbering; copies: 2 + 2
